From the supplement of paper PMC10724198
± gives the standard deviation of the averaged measurements.

Assays:
[1] = tested on: Saccharomyces cerevisiae; assay: protein stability index of tFT-peptide fusion (C-terminal peptide) (PSI (0-1 scale)); higher = more stable (slower turnover)
Protocol: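 MPS profiling in S. cerevisiae of the tFT-X12 degron library: putative degron peptides plus stable controls, 12 aa, fused to the C-terminus of a sfGFP-mCherry timer. Cells are FACS-sorted into 8 mCherry/sfGFP bins and deep-sequenced. PSI runs from 0 (unstable) to 1 (stable). Backgrounds are wild type, das1Δ and doa10Δ at 30 °C, and wild type, das1Δ, cdc34-1 and cdc53-1 at 37 °C; 2-3 technical replicates each.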

[2] = tested on: Saccharomyces cerevisiae; assay: as above; details: genetic background: wild type; temperature: 30 C
[3] = genetic background: cdc34-1, temperature: 37 C
[4] = genetic background: cdc53-1, temperature: 37 C
[5] = genetic background: das1 deletion, temperature: 30 C
[6] = genetic background: das1 deletion, temperature: 37 C
[7] = genetic background: doa10 deletion, temperature: 30 C
[8] = genetic background: wild type, temperature: 30 C
[9] = genetic background: wild type, temperature: 37 C
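Also: PSI is a weighted mean of sequencing reads over stability bins, variants kept only with over 10 reads, mCherry proximal and sfGFP distal, peptide attached via GGGS linker.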

Sequence	protein stability index [1, 3]	protein stability index [1, 4]	protein stability index [1, 5]	protein stability index [1, 6]	protein stability index [1, 7]	protein stability index [1, 8]	protein stability index [1, 9]	protein stability index [2]
GELDVRKLLKYF	0.688 ± 0.02	0.718 ± 0.043	0.669 ± 0.011	0.768 ± 0.019	0.154 ± 0.034	0.172 ± 0.036	0.383 ± 0.0041	0.342 ± 0.086
LLLRQVFSLGVF	0.549 ± 0.048	0.64 ± 0.023	0.558 ± 0.011	0.6741 ± 0.0063	0.104 ± 0.018	0.142 ± 0.014	0.312 ± 0.021	0.162 ± 0.0081
PPPPLATTSAPL	0.687 ± 0.046	0.74266 ± 0.0006	0.661 ± 0.0092	0.7118 ± 0.0031	0.668 ± 0.029	0.665 ± 0.015	0.6919 ± 0.0013	0.719 ± 0.04
PLSSHIPVHEAR	0.659 ± 0.052	0.744 ± 0.035	0.699 ± 0.017	0.706 ± 0.011	0.674 ± 0.012	0.645 ± 0.025	0.6878 ± 0.0027	0.718 ± 0.025
CFCVSVHVWLLM	0.112 ± 0.028	0.238 ± 0.046	0.199 ± 0.038	0.342 ± 0.017	0.0493 ± 0.017	0.069 ± 0.018	0.105 ± 0.017	0.147 ± 0.04
IERGLMLTLCVH	0.0536 ± 0.009	0.0716 ± 0.028	0.172 ± 0.027	0.205 ± 0.0033	0.115 ± 0.013	0.156 ± 0.024	0.171 ± 0.0059	0.22 ± 0.014
QPSSFDMLGLLL	0.6791 ± 0.0055	0.738 ± 0.019	0.654 ± 0.0092	0.752 ± 0.023	0.671 ± 0.053	0.663 ± 0.02	0.709 ± 0.0089	0.742 ± 0.049
LTACRYVCFLLF	0.575 ± 0.019	0.644 ± 0.018	0.561 ± 0.017	0.676 ± 0.037	0.239 ± 0.0088	0.261 ± 0.032	0.424 ± 0.012	0.261 ± 0.041
GGGVGGAVVLFW	0.651 ± 0.023	0.764 ± 0.029	0.527 ± 0.016	0.718 ± 0.0021	0.528 ± 0.01	0.565 ± 0.027	0.716 ± 0.0033	0.408 ± 0.013
LCLLPVCLWDVG	0.451 ± 0.026	0.513 ± 0.016	0.447 ± 0.0076	0.501 ± 0.0082	0.453 ± 0.0074	0.439 ± 0.017	0.49 ± 0.0072	0.461 ± 0.023
RHRGHVRLALLN	0.7 ± 0.079	0.845 ± 0.041	0.772 ± 0.013	0.791 ± 0.061	0.233 ± 0.025	0.26 ± 0.029	0.381 ± 0.017	0.396 ± 0.0095
AWVEVYVISIGV	0.192 ± 0.024	0.257 ± 0.0074	0.161 ± 0.022	0.324 ± 0.012	0.132 ± 0.0032	0.153 ± 0.011	0.2966 ± 0.0016	0.19 ± 0.032
SFLVFLYFFMVF	0.3637 ± 0.0027	0.429 ± 0.058	0.335 ± 0.038	0.449 ± 0.02	0.316 ± 0.016	0.303 ± 0.034	0.446 ± 0.031	0.379 ± 0.013
SVVLCRFVLRIF	0.0423 ± 0.011	0.109 ± 0.055	0.136 ± 0.015	0.181 ± 0.039	0.0747 ± 0.0075	0.0735 ± 0.017	0.136 ± 0.038	0.128 ± 0.018
GALWPGALRFLN	0.587 ± 0.045	0.747 ± 0.05	0.671 ± 0.023	0.81 ± 0.022	0.101 ± 0.014	0.104 ± 0.015	0.195 ± 0.035	0.171 ± 0.026
VCLWAIHLSGCW	0.546 ± 0.046	0.601 ± 0.048	0.46 ± 0.022	0.58776 ± 0.00056	0.453 ± 0.021	0.449 ± 0.03	0.584 ± 0.014	0.475 ± 0.035
FLPFRVFNFSLV	0.659 ± 0.031	0.713 ± 0.015	0.653 ± 0.035	0.725 ± 0.015	0.22 ± 0.011	0.229 ± 0.026	0.441 ± 0.05	0.38 ± 0.063
PDPIFGEWVYMV	0.57943 ± 4.3e-05	0.72148 ± 0.00041	0.644 ± 0.0072	0.7555 ± 0.0066	0.249 ± 0.00039	0.26 ± 0.02	0.384 ± 0.0032	0.327 ± 0.0015
ETYCLPRVASGI	0.695 ± 0.021	0.733 ± 0.026	0.655 ± 0.013	0.733 ± 0.029	0.666 ± 0.02	0.665 ± 0.021	0.708 ± 0.02	0.733 ± 0.0075
ILFVCVCVLHVG	0.112 ± 0.0052	0.198 ± 0.012	0.17 ± 0.027	0.307 ± 0.0048	0.121 ± 0.013	0.141 ± 0.019	0.252 ± 0.021	0.242 ± 0.025

Sequence	protein stability index [1, 3]	protein stability index [1, 4]	protein stability index [1, 5]	protein stability index [1, 6]	protein stability index [1, 7]	protein stability index [1, 8]	protein stability index [1, 9]	protein stability index [2]
VFFCLFWFFCSF	0.54 ± 0.009	0.571 ± 0.057	0.482 ± 0.031	0.54 ± 0.0084	0.454 ± 0.0066	0.453 ± 0.017	0.492 ± 0.012	0.51 ± 0.12
VGGGCVVVVRWG	0.589 ± 0.044	0.615 ± 0.02	0.485 ± 0.019	0.619 ± 0.009	0.477 ± 0.022	0.475 ± 0.012	0.594 ± 0.0083	0.52 ± 0.035
FQWILYIAKRVV	0.556 ± 0.095	0.671 ± 0.04	0.473 ± 0.036	0.603 ± 0.0069	0.259 ± 0.059	0.261 ± 0.044	0.442 ± 0.051	0.338 ± 0.021
FRTTGQAPPSKP	0.674 ± 0.064	0.743 ± 0.013	0.633 ± 0.013	0.727 ± 0.022	0.64 ± 0.038	0.6444 ± 0.0056	0.71966 ± 0.0003	0.568 ± 0.2
GILPIYNIISRL	0.9679 ± 0.0088	0.948 ± 0.019	0.842 ± 0.054	0.891 ± 0.013	0.568 ± 0.016	0.547 ± 0.1	0.84 ± 0.031	0.553 ± 0.28
VRLHIAMWLRRC	0.299 ± 0.02	0.271 ± 0.022	0.316 ± 0.027	0.414 ± 0.007	0.138 ± 0.015	0.0999 ± 0.025	0.18975 ± 1.6e-05	0.14 ± 0.027
ALCPPLPMLVVA	0.02987 ± 0.00016	0.03 ± 0.0043	0.156 ± 0.019	0.0912 ± 0.0067	0.109 ± 0.01	0.137 ± 0.03	0.0758 ± 0.0021	0.2097 ± 0.00085
HLYPFPSLHFAF	0.74 ± 0.043	0.791 ± 0.012	0.681 ± 0.013	0.778 ± 0.026	0.683 ± 0.025	0.688 ± 0.015	0.753 ± 0.019	0.799 ± 0.1
VFFVTSCWVFRG	0.416 ± 0.018	0.574 ± 0.019	0.432 ± 0.022	0.64 ± 0.022	0.0921 ± 0.02	0.109 ± 0.028	0.208 ± 0.029	0.1794 ± 0.0015
RYLCLTPALYLS	0.45 ± 0.014	0.5588 ± 0.0053	0.509 ± 0.027	0.621 ± 0.0072	0.125 ± 0.017	0.113 ± 0.012	0.157 ± 0.016	0.151 ± 0.11
LLAWLHTVQRVG	0.695 ± 0.028	0.7529 ± 0.0028	0.659 ± 0.02	0.7844 ± 0.0033	0.226 ± 0.0046	0.271 ± 0.023	0.493 ± 0.013	0.339 ± 0.011
ASVCLNVIYQLV	0.515 ± 0.024	0.451 ± 0.0053	0.288 ± 0.027	0.471 ± 0.013	0.1572 ± 0.0011	0.164 ± 0.018	0.222 ± 0.024	0.268 ± 0.036
GCLGYTLSCFTY	0.563 ± 0.014	0.64 ± 0.038	0.525 ± 0.051	0.626 ± 0.0015	0.519 ± 0.019	0.51 ± 0.027	0.643 ± 0.015	0.401 ± 0.015
RGYATTALHWVS	0.668 ± 0.038	0.7695 ± 0.0075	0.6757 ± 0.002	0.7395 ± 0.0034	0.362 ± 0.0075	0.4 ± 0.022	0.596 ± 0.015	0.486 ± 0.019
TDFICLLWLLHW	0.552 ± 0.035	0.535 ± 0.058	0.422 ± 0.02	0.5698 ± 0.0043	0.3864 ± 0.0017	0.41 ± 0.032	0.535 ± 0.014	0.565 ± 0.12
FFCVLGLSFFCL	0.609 ± 0.065	0.618 ± 0.016	0.568 ± 0.021	0.58942 ± 0.00014	0.554 ± 0.039	0.549 ± 0.021	0.566 ± 0.016	0.542 ± 0.17
DHSWGGLLICTC	0.476 ± 0.011	0.492 ± 0.042	0.343 ± 0.049	0.546 ± 0.022	0.33 ± 0.026	0.364 ± 0.028	0.513 ± 0.017	0.473 ± 0.039
LFSFVCLVFFLW	0.312 ± 0.017	0.375 ± 0.006	0.291 ± 0.03	0.441 ± 0.0094	0.306 ± 0.032	0.27 ± 0.026	0.4178 ± 0.00065	0.38 ± 0.07
GSVGFICCVVVV	0.29 ± 0.022	0.4314 ± 0.0042	0.332 ± 0.03	0.515 ± 0.0078	0.268 ± 0.017	0.298 ± 0.031	0.4546 ± 0.0022	0.412 ± 0.0011
